The test has as its target T1, mouse FLT3 receptor (mouse, UniProt Q00342 28-1000).
T1 construct: whole, on cells; Endogenous receptor of the NSG host mouse, knocked out in the NSG Flt3null-Tg(Hu-FLT3L) line; also called CD135
T1 sequence (looked up): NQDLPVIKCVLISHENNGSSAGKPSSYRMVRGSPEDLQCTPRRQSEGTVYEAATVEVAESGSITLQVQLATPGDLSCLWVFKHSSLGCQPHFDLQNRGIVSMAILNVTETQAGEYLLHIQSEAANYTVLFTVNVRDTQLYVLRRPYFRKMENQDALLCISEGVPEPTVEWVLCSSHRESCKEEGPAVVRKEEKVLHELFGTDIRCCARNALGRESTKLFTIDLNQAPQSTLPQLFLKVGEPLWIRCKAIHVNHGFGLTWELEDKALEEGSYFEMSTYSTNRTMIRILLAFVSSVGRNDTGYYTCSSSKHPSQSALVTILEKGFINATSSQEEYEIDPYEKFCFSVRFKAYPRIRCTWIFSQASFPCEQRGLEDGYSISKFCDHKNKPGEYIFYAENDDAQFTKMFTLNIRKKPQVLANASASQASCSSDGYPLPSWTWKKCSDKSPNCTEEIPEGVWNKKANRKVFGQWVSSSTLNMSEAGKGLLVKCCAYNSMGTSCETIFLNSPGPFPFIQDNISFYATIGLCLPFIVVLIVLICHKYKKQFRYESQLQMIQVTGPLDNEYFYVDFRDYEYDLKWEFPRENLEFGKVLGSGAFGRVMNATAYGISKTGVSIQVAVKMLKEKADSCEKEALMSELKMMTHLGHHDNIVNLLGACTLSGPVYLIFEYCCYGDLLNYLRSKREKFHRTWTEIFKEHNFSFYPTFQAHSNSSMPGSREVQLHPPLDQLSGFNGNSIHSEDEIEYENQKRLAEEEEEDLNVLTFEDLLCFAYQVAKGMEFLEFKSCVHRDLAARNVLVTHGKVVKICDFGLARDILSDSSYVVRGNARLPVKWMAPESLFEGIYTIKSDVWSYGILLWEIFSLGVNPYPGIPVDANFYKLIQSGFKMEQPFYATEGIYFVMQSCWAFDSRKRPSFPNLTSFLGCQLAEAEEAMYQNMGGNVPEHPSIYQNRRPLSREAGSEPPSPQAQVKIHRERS
The test is described as follows: no direct binding assay; inferred from in vivo mouse genetics (human FLT3L transgenic NSG mice with and without knock-out of mouse Flt3).

The values below come from patent US20220136002A1 (JACKSON LABORATORY, published 2022).

B1: human FLT3 ligand (FLT3L) (ligand, UniProt P49771 27-184, looked up)
chain: TQDCSFQHSPISSDFAVKIRELSDYLLQDYPVTVASNLQDEELCGGLWRLVLAQRWMERLKTVAGSKMQGLLERVNTEIHFVTKCAFQPPPSCLRFVQTNISRLLQETSEQLVALKPWITRQNFSRCLELQCQPDSSTLPPPWSPRPLEATAPTAPQP
notes: Expressed in vivo from a 13.8 kb genomic BAC fragment and circulating in mouse serum; also called Hu-FLT3L
Consider B1, for which the binding result is given as “binds”.
